Experimental findings from patent publication US20180273635A1 (Zymeworks, published 2018) are described below.

Assay [1] concerns the target T1, Recombinant human HER2 (human, UniProt P04626 23-652).
T1 construct: extracellular domain; analyte of the SPR assays; also called HER2 ECD; ECD2 of HER2
The assay is described as follows: SPR, variant captured on anti-human Fc, HER2 flowed, 25 C, pre-SEC.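 Also: HER2 extracellular domain binding on Biacore T200, CM5 chip with amine-coupled anti-human Fc, duplicate antigen dilutions, global 1:1 Langmuir fit, measured after protein A purification.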

Assay [2] concerns the target T1, Recombinant human HER2. The assay is described as follows: SPR, pre-SEC; ratio to WT v10013.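 Also: SPR on Biacore T200 at 25 °C, constructs captured via anti-human Fc on CM5 chip, HER2 ECD as analyte, 1:1 Langmuir global fit, after protein A purification.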 A general note: SPR reads the build-up and loss of mass on a sensor chip optically.
In assay [3] the target is T2, Recombinant human HER2 (human, UniProt P04626 23-652).
T2 construct: extracellular domain; Analyte of the SPR assays; also called HER2 ECD; ECD2 of HER2
Nature of the assay: SPR, Biacore T200, 25 C; variant captured on anti-human Fc, HER2 flowed.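 Also: HER2 extracellular domain analyte run as duplicate dilutions over amine-coupled anti-Fc on a CM5 chip, rates from global sensorgram fitting with a 1:1 Langmuir model.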

The term Kd denotes the free concentration of one partner at which half of the binding sites on the other are occupied at equilibrium, for simple one-to-one binding. The term koff denotes the first-order rate constant of dissociation. Broadly, the kon is the second-order rate constant of association.

B1: variant 12475 (antibody, human IgG1, kappa)
heavy: EVQLVESGGGLVQPGGSLRLSCAASGFRFTDYTMDWVRQAPGKGLEWVADVNPNSGGSIYNQRFKGRFTLSVDRSKNTLYLQMNSLRAEDTAVYYCARNLGPSFYFDYWGQGTLVTVSSASTKGPSVFPLAPSSKSTSGGTAALGCLVKDYFPEPVTVSWNSGALTSGVHTFPAVLQSSGLYSLSSVVTVPSSSLGTQTYICNVNHKPSNTKVDKKVEPKSCDKTHTCPPCPAPELLGGPSVFLFPPKPKDTLMISRTPEVTCVVVDVSHEDPEVKFNWYVDGVEVHNAKTKPREEQYNSTYRVVSVLTVLHQDWLNGKEYKCKVSNKALPAPIEKTISKAKGQPREPQVYVYPPSRDELTKNQVSLTCLVKGFYPSDIAVEWESNGQPENNYKTTPPVLDSDGSFALVSKLTVDKSRWQQGNVFSCSVMHEALHNHYTQKSLSLSPG
light: not shown
chain: not shown
notes: one-armed (OA) pertuzumab variant, HC T28R (Kabat); also called v12475
B1: in assay [1], the Kd amounted to 45 nM. Moreover, the “Ka, mut/Ka, WT” value in assay [2] amounted to 0.4.

B2: variant 12495 (antibody, human IgG1, kappa)
heavy: EVQLVESGGGLVQPGGSLRLSCAASGFTFTDYTMDWVRQAPGKGLEWVADVNPNSGGSFYNQRFKGRFTLSVDRSKNTLYLQMNSLRAEDTAVYYCARNLGPSFYFDYWGQGTLVTVSSASTKGPSVFPLAPSSKSTSGGTAALGCLVKDYFPEPVTVSWNSGALTSGVHTFPAVLQSSGLYSLSSVVTVPSSSLGTQTYICNVNHKPSNTKVDKKVEPKSCDKTHTCPPCPAPELLGGPSVFLFPPKPKDTLMISRTPEVTCVVVDVSHEDPEVKFNWYVDGVEVHNAKTKPREEQYNSTYRVVSVLTVLHQDWLNGKEYKCKVSNKALPAPIEKTISKAKGQPREPQVYVYPPSRDELTKNQVSLTCLVKGFYPSDIAVEWESNGQPENNYKTTPPVLDSDGSFALVSKLTVDKSRWQQGNVFSCSVMHEALHNHYTQKSLSLSPG
light: not shown
chain: not shown
notes: OA pertuzumab variant, HC I58F (Kabat); also called v12495
As to B2, the Kd in assay [1] worked out at 50 nM. For the same molecule, the “Ka, mut/Ka, WT” value in assay [2] was 0.4.

B3: variant 12492 (antibody, human IgG1, kappa)
heavy: EVQLVESGGGLVQPGGSLRLSCAASGFTFTDYTMDWVRQAPGKGLEWVADVNPNSGWSIYNQRFKGRFTLSVDRSKNTLYLQMNSLRAEDTAVYYCARNLGPSFYFDYWGQGTLVTVSSASTKGPSVFPLAPSSKSTSGGTAALGCLVKDYFPEPVTVSWNSGALTSGVHTFPAVLQSSGLYSLSSVVTVPSSSLGTQTYICNVNHKPSNTKVDKKVEPKSCDKTHTCPPCPAPELLGGPSVFLFPPKPKDTLMISRTPEVTCVVVDVSHEDPEVKFNWYVDGVEVHNAKTKPREEQYNSTYRVVSVLTVLHQDWLNGKEYKCKVSNKALPAPIEKTISKAKGQPREPQVYVYPPSRDELTKNQVSLTCLVKGFYPSDIAVEWESNGQPENNYKTTPPVLDSDGSFALVSKLTVDKSRWQQGNVFSCSVMHEALHNHYTQKSLSLSPG
light: not shown
chain: not shown
notes: OA pertuzumab variant, HC G56W (Kabat); also called v12492
As for B3, the Kd in assay [1] turned out to be 17 nM. The “Ka, mut/Ka, WT” value in assay [2] came to 1.1.

B4: variant 12477 (antibody, human IgG1, kappa)
heavy: EVQLVESGGGLVQPGGSLRLSCAASGFTFRDYTMDWVRQAPGKGLEWVADVNPNSGGSIYNQRFKGRFTLSVDRSKNTLYLQMNSLRAEDTAVYYCARNLGPSFYFDYWGQGTLVTVSSASTKGPSVFPLAPSSKSTSGGTAALGCLVKDYFPEPVTVSWNSGALTSGVHTFPAVLQSSGLYSLSSVVTVPSSSLGTQTYICNVNHKPSNTKVDKKVEPKSCDKTHTCPPCPAPELLGGPSVFLFPPKPKDTLMISRTPEVTCVVVDVSHEDPEVKFNWYVDGVEVHNAKTKPREEQYNSTYRVVSVLTVLHQDWLNGKEYKCKVSNKALPAPIEKTISKAKGQPREPQVYVYPPSRDELTKNQVSLTCLVKGFYPSDIAVEWESNGQPENNYKTTPPVLDSDGSFALVSKLTVDKSRWQQGNVFSCSVMHEALHNHYTQKSLSLSPG
light: not shown
chain: not shown
notes: OA pertuzumab variant, HC T30R (Kabat); also called v12477
As for B4, the Kd in assay [1] was determined as 23 nM. The “Ka, mut/Ka, WT” value in assay [2] is 0.9.

B5: Variant 14052 (antibody, human IgG1, kappa)
heavy: EVQLVESGGGLVQPGGSLRLSCAASGFTFTDYTMDWVRQAPGKGLEWVADVNPNSGGSIYNQRFKGRFTLSVDRSKNTLYLQMNSLRAEDTAVYYCARNLGPWFYFDYWGQGTLVTVSSASTKGPSVFPLAPSSKSTSGGTAALGCLVKDYFPEPVTVSWNSGALTSGVHTFPAVLQSSGLYSLSSVVTVPSSSLGTQTYICNVNHKPSNTKVDKKVEPKSCDKTHTCPPCPAPELLGGPSVFLFPPKPKDTLMISRTPEVTCVVVDVSHEDPEVKFNWYVDGVEVHNAKTKPREEQYNSTYRVVSVLTVLHQDWLNGKEYKCKVSNKALPAPIEKTISKAKGQPREPQVYVYPPSRDELTKNQVSLTCLVKGFYPSDIAVEWESNGQPENNYKTTPPVLDSDGSFALVSKLTVDKSRWQQGNVFSCSVMHEALHNHYTQKSLSLSPG
light: not shown
chain: not shown
notes: OA (one-armed) format; clones 7852, 8781, 4372; also called v14052
Regarding B5, in assay [3], the Kd stood at 55 nM, the koff worked out at 0.0053 s⁻¹ and the kon stood at 97000 M⁻¹ s⁻¹.

B6: variant 12487 (antibody, human IgG1, kappa)
heavy: EVQLVESGGGLVQPGGSLRLSCAASGFTFTDYTMDWVRQAPGKGLEWVADVNPNSGKSIYNQRFKGRFTLSVDRSKNTLYLQMNSLRAEDTAVYYCARNLGPSFYFDYWGQGTLVTVSSASTKGPSVFPLAPSSKSTSGGTAALGCLVKDYFPEPVTVSWNSGALTSGVHTFPAVLQSSGLYSLSSVVTVPSSSLGTQTYICNVNHKPSNTKVDKKVEPKSCDKTHTCPPCPAPELLGGPSVFLFPPKPKDTLMISRTPEVTCVVVDVSHEDPEVKFNWYVDGVEVHNAKTKPREEQYNSTYRVVSVLTVLHQDWLNGKEYKCKVSNKALPAPIEKTISKAKGQPREPQVYVYPPSRDELTKNQVSLTCLVKGFYPSDIAVEWESNGQPENNYKTTPPVLDSDGSFALVSKLTVDKSRWQQGNVFSCSVMHEALHNHYTQKSLSLSPG
light: not shown
chain: not shown
notes: OA pertuzumab variant, HC G56K (Kabat); also called v12487
In the case of B6, the Kd in assay [1] turned out to be 44 nM. The “Ka, mut/Ka, WT” value in assay [2] is 0.4.

B7: variant 12481 (antibody, human IgG1, kappa)
heavy: EVQLVESGGGLVQPGGSLRLSCAASGFTFKDYTMDWVRQAPGKGLEWVADVNPNSGGSIYNQRFKGRFTLSVDRSKNTLYLQMNSLRAEDTAVYYCARNLGPSFYFDYWGQGTLVTVSSASTKGPSVFPLAPSSKSTSGGTAALGCLVKDYFPEPVTVSWNSGALTSGVHTFPAVLQSSGLYSLSSVVTVPSSSLGTQTYICNVNHKPSNTKVDKKVEPKSCDKTHTCPPCPAPELLGGPSVFLFPPKPKDTLMISRTPEVTCVVVDVSHEDPEVKFNWYVDGVEVHNAKTKPREEQYNSTYRVVSVLTVLHQDWLNGKEYKCKVSNKALPAPIEKTISKAKGQPREPQVYVYPPSRDELTKNQVSLTCLVKGFYPSDIAVEWESNGQPENNYKTTPPVLDSDGSFALVSKLTVDKSRWQQGNVFSCSVMHEALHNHYTQKSLSLSPG
light: not shown
chain: not shown
notes: OA pertuzumab variant, HC T30K (Kabat); also called v12481
B7: the Kd in assay [1] was determined as 310 nM. For the same molecule, in assay [2], the “Ka, mut/Ka, WT” value is 0.1.

B8: variant 12486 (antibody, human IgG1, kappa)
heavy: EVQLVESGGGLVQPGGSLRLSCAASGFTFTDYTMDWVRQAPGKGLEWVADVNPNHGGSIYNQRFKGRFTLSVDRSKNTLYLQMNSLRAEDTAVYYCARNLGPSFYFDYWGQGTLVTVSSASTKGPSVFPLAPSSKSTSGGTAALGCLVKDYFPEPVTVSWNSGALTSGVHTFPAVLQSSGLYSLSSVVTVPSSSLGTQTYICNVNHKPSNTKVDKKVEPKSCDKTHTCPPCPAPELLGGPSVFLFPPKPKDTLMISRTPEVTCVVVDVSHEDPEVKFNWYVDGVEVHNAKTKPREEQYNSTYRVVSVLTVLHQDWLNGKEYKCKVSNKALPAPIEKTISKAKGQPREPQVYVYPPSRDELTKNQVSLTCLVKGFYPSDIAVEWESNGQPENNYKTTPPVLDSDGSFALVSKLTVDKSRWQQGNVFSCSVMHEALHNHYTQKSLSLSPG
light: not shown
chain: not shown
notes: OA pertuzumab variant, HC S54H (Kabat); also called v12486
As for B8, the Kd in assay [1] stood at 92 nM. For the same molecule, the “Ka, mut/Ka, WT” value in assay [2] was found to be 0.2.

B9: variant 12496 (antibody, human IgG1, kappa)
heavy: EVQLVESGGGLVQPGGSLRLSCAASGFTFTDYTMDWVRQAPGKGLEWVADVNPNSGGSYYNQRFKGRFTLSVDRSKNTLYLQMNSLRAEDTAVYYCARNLGPSFYFDYWGQGTLVTVSSASTKGPSVFPLAPSSKSTSGGTAALGCLVKDYFPEPVTVSWNSGALTSGVHTFPAVLQSSGLYSLSSVVTVPSSSLGTQTYICNVNHKPSNTKVDKKVEPKSCDKTHTCPPCPAPELLGGPSVFLFPPKPKDTLMISRTPEVTCVVVDVSHEDPEVKFNWYVDGVEVHNAKTKPREEQYNSTYRVVSVLTVLHQDWLNGKEYKCKVSNKALPAPIEKTISKAKGQPREPQVYVYPPSRDELTKNQVSLTCLVKGFYPSDIAVEWESNGQPENNYKTTPPVLDSDGSFALVSKLTVDKSRWQQGNVFSCSVMHEALHNHYTQKSLSLSPG
light: not shown
chain: not shown
notes: OA pertuzumab variant, HC I58Y (Kabat); also called v12496
Turning to B9, in assay [1], the Kd turned out to be 66 nM. Further, the “Ka, mut/Ka, WT” value in assay [2] was determined as 0.3.

B10: variant 12476 (antibody, human IgG1, kappa)
heavy: EVQLVESGGGLVQPGGSLRLSCAASGFKFTDYTMDWVRQAPGKGLEWVADVNPNSGGSIYNQRFKGRFTLSVDRSKNTLYLQMNSLRAEDTAVYYCARNLGPSFYFDYWGQGTLVTVSSASTKGPSVFPLAPSSKSTSGGTAALGCLVKDYFPEPVTVSWNSGALTSGVHTFPAVLQSSGLYSLSSVVTVPSSSLGTQTYICNVNHKPSNTKVDKKVEPKSCDKTHTCPPCPAPELLGGPSVFLFPPKPKDTLMISRTPEVTCVVVDVSHEDPEVKFNWYVDGVEVHNAKTKPREEQYNSTYRVVSVLTVLHQDWLNGKEYKCKVSNKALPAPIEKTISKAKGQPREPQVYVYPPSRDELTKNQVSLTCLVKGFYPSDIAVEWESNGQPENNYKTTPPVLDSDGSFALVSKLTVDKSRWQQGNVFSCSVMHEALHNHYTQKSLSLSPG
light: not shown
chain: not shown
notes: OA pertuzumab variant, HC T28K (Kabat); also called v12476
For the molecule B10, in assay [1], the Kd stood at 61 nM. Also, in assay [2], the “Ka, mut/Ka, WT” value stood at 0.3.

B11: variant 12488 (antibody, human IgG1, kappa)
heavy: EVQLVESGGGLVQPGGSLRLSCAASGFTFTDYTMDWVRQAPGKGLEWVADVNPNSGRSIYNQRFKGRFTLSVDRSKNTLYLQMNSLRAEDTAVYYCARNLGPSFYFDYWGQGTLVTVSSASTKGPSVFPLAPSSKSTSGGTAALGCLVKDYFPEPVTVSWNSGALTSGVHTFPAVLQSSGLYSLSSVVTVPSSSLGTQTYICNVNHKPSNTKVDKKVEPKSCDKTHTCPPCPAPELLGGPSVFLFPPKPKDTLMISRTPEVTCVVVDVSHEDPEVKFNWYVDGVEVHNAKTKPREEQYNSTYRVVSVLTVLHQDWLNGKEYKCKVSNKALPAPIEKTISKAKGQPREPQVYVYPPSRDELTKNQVSLTCLVKGFYPSDIAVEWESNGQPENNYKTTPPVLDSDGSFALVSKLTVDKSRWQQGNVFSCSVMHEALHNHYTQKSLSLSPG
light: not shown
chain: not shown
notes: OA pertuzumab variant, HC G56R (Kabat); also called v12488
Consider B11, for which the Kd in assay [1] is 30 nM. The “Ka, mut/Ka, WT” value in assay [2] came out at 0.6.
